Where two headings read alike, the source gives them in different places.
What was measured:
[1] = system: K-562; test: NCI60 in vitro screening, Leukemia; type: cell-based
[2] = system: NCI-H522; type: cell-based
[3] = system: COLO 205; test: NCI60 in vitro screening, Colon Cancer; type: cell-based
[4] = system: HCT-15; test: NCI60 in vitro screening, Colon Cancer; type: cell-based
[5] = system: KM12; test: NCI60 in vitro screening, Colon Cancer; type: cell-based
[6] = system: SNB-75; test: NCI60 in vitro screening, CNS Cancer; type: cell-based
[7] = system: MALME-3M; test: NCI60 in vitro screening, Melanoma; type: cell-based
[8] = system: MDA-MB-435; test: NCI60 in vitro screening, Melanoma; type: cell-based
[9] = system: SK-MEL-28; test: NCI60 in vitro screening, Melanoma; type: cell-based
[10] = system: UACC-62; test: NCI60 in vitro screening, Melanoma; type: cell-based
[11] = system: OVCAR-3; test: NCI60 in vitro screening, Ovarian Cancer; type: cell-based
[12] = system: OVCAR-4; test: NCI60 in vitro screening, Ovarian Cancer; type: cell-based
[13] = system: OVCAR-5; test: NCI60 in vitro screening, Ovarian Cancer; type: cell-based
[14] = system: RXF 393; test: NCI60 in vitro screening, Renal Cancer; type: cell-based
[15] = system: MCF7; test: NCI60 in vitro screening, Breast Cancer; type: cell-based
[16] = system: A549/D16; test: MTT assay, drug sensitivity; type: cell-based, human; conditions: A549/D16, 48 h, MTT
Method: (§1) A549 cell line and resistant A549 cell sublines (A549/D16, A549/D32 and A549/V16) (5000 cells/well of 96-well plate) were treated with increased doses concentrations (μM) of GMI from Ganoderma microsporum, docetaxel, vincristine and doxorubicin for 48 h, respectively. Cell viability was measured by MTT assay and the results are presented as the calculated cell growth inhibitory ratio. Experiments were repeated three times.

[17] = system: A549/V16; test: MTT assay, drug sensitivity; type: cell-based, human; conditions: A549/V16, 48 h, MTT
Method: as §1

[18] = system: A549; test: MTT assay, drug sensitivity; type: cell-based, human; conditions: A549, 48 h, MTT
Method: as §1

[19] = system: BT-549

B1: GMI: immunomodulatory protein from Ganoderma microsporum, amino acid sequence SEQ ID NO: 3, manufactured by Mycomagic Biotechnology Co., Ltd. (protein, listed as Ganoderma microsporum)
chain: MSDTALIFTLAWNVKQLAFDYTPNWGRGRPSSFIDTVTFPTVLTDKAYTYRVVVSGKDLGVRPSYAVESDGSQKINFLEYNSGYGIADTNTIQVYVIDPDTGNNFIVAQWN
TGI ([1]; K-562): >1.25E2 | Percent Growth ([1]; K-562, Log10 Concentration 0.1): 101% | Percent Growth ([1]; K-562, Log10 Concentration 1.1): 97% | Percent Growth ([1]; K-562, Log10 Concentration 2.1): 90% | Percent Growth ([1]; K-562, Log10 Concentration −0.9): 98% | Percent Growth ([1]; K-562, Log10 Concentration −1.9): 96% | Growth Percent ([1]; K-562, one dose): 125.37% | TGI ([2]; NCI-H522): 1.25E2 | Percent Growth ([2]; NCI-H522, Log10 Concentration 0.1): 105% | Percent Growth ([2]; NCI-H522, Log10 Concentration 1.1): 98% | Percent Growth ([2]; NCI-H522, Log10 Concentration 2.1): 53% | Percent Growth ([2]; NCI-H522, Log10 Concentration −0.9): 100% | Percent Growth ([2]; NCI-H522, Log10 Concentration −1.9): 95% | Growth Percent ([2]; NCI-H522, one dose): 125.90% | TGI ([3]; COLO 205): >1.25E2 | Percent Growth ([3]; COLO 205, Log10 Concentration 0.1): 100% | Percent Growth ([3]; COLO 205, Log10 Concentration 1.1): 95% | Percent Growth ([3]; COLO 205, Log10 Concentration 2.1): 95% | Percent Growth ([3]; COLO 205, Log10 Concentration −0.9): 98% | Percent Growth ([3]; COLO 205, Log10 Concentration −1.9): 95% | Growth Percent ([3]; COLO 205, one dose): 105.56% | TGI ([4]; HCT-15): 5.26E1 | Percent Growth ([4]; HCT-15, Log10 Concentration 0.1): 94% | Percent Growth ([4]; HCT-15, Log10 Concentration 1.1): 52% | Percent Growth ([4]; HCT-15, Log10 Concentration 2.1): −31% | Percent Growth ([4]; HCT-15, Log10 Concentration −0.9): 97% | Percent Growth ([4]; HCT-15, Log10 Concentration −1.9): 97% | Growth Percent ([4]; HCT-15, one dose): 33.64% | GI50 ([4]; HCT-15, in µg/mL): 1.31E1 | TGI ([5]; KM12): >1.25E2 | Percent Growth ([5]; KM12, Log10 Concentration 0.1): 104% | Percent Growth ([5]; KM12, Log10 Concentration 1.1): 89% | Percent Growth ([5]; KM12, Log10 Concentration 2.1): 43% | Percent Growth ([5]; KM12, Log10 Concentration −0.9): 96% | Percent Growth ([5]; KM12, Log10 Concentration −1.9): 100% | Growth Percent ([5]; KM12, one dose): 62.96% | GI50 ([5]; KM12, in µg/mL): 8.92E1 | TGI ([6]; SNB-75): 1.45E1 | Percent Growth ([6]; SNB-75, Log10 Concentration 0.1): 97% | Percent Growth ([6]; SNB-75, Log10 Concentration 1.1): 5% | Percent Growth ([6]; SNB-75, Log10 Concentration 2.1): −68% | Percent Growth ([6]; SNB-75, Log10 Concentration −0.9): 101% | Percent Growth ([6]; SNB-75, Log10 Concentration −1.9): 95% | Growth Percent ([6]; SNB-75, one dose): −45.73% | GI50 ([6]; SNB-75, in µg/mL): 4.04E0 | LC50 ([6]; SNB-75, in µg/mL): 7.14E1 | TGI [7]: >1.25E2 | Percent Growth ([7]; Log10 Concentration 0.1): 118% | Percent Growth ([7]; Log10 Concentration 1.1): 114% | Percent Growth ([7]; Log10 Concentration 2.1): 74% | Percent Growth ([7]; Log10 Concentration −0.9): 102% | Percent Growth ([7]; Log10 Concentration −1.9): 100% | Growth Percent ([7]; one dose): 114.17% | TGI ([8]; MDA-MB-435): >1.25E2 | Percent Growth ([8]; MDA-MB-435, Log10 Concentration 0.1): 91% | Percent Growth ([8]; MDA-MB-435, Log10 Concentration 1.1): 85% | Percent Growth ([8]; MDA-MB-435, Log10 Concentration 2.1): 3% | Percent Growth ([8]; MDA-MB-435, Log10 Concentration −0.9): 96% | Percent Growth ([8]; MDA-MB-435, Log10 Concentration −1.9): 101% | Growth Percent ([8]; MDA-MB-435, one dose): 79.29% | GI50 ([8]; MDA-MB-435, in µg/mL): 3.34E1 | TGI ([9]; SK-MEL-28): >1.25E2 | Percent Growth ([9]; SK-MEL-28, Log10 Concentration 0.1): 110% | Percent Growth ([9]; SK-MEL-28, Log10 Concentration 1.1): 98% | Percent Growth ([9]; SK-MEL-28, Log10 Concentration 2.1): 72% | Percent Growth ([9]; SK-MEL-28, Log10 Concentration −0.9): 103% | Percent Growth ([9]; SK-MEL-28, Log10 Concentration −1.9): 98% | Growth Percent ([9]; SK-MEL-28, one dose): 106.96% | TGI ([10]; UACC-62): >1.25E2 | Percent Growth ([10]; UACC-62, Log10 Concentration 0.1): 99% | Percent Growth ([10]; UACC-62, Log10 Concentration 1.1): 106% | Percent Growth ([10]; UACC-62, Log10 Concentration 2.1): 68% | Percent Growth ([10]; UACC-62, Log10 Concentration −0.9): 101% | Percent Growth ([10]; UACC-62, Log10 Concentration −1.9): 105% | Growth Percent ([10]; UACC-62, one dose): 115.96% | TGI ([11]; OVCAR-3): >1.25E2 | Percent Growth ([11]; OVCAR-3, Log10 Concentration 0.1): 108% | Percent Growth ([11]; OVCAR-3, Log10 Concentration 1.1): 85% | Percent Growth ([11]; OVCAR-3, Log10 Concentration 2.1): 26% | Percent Growth ([11]; OVCAR-3, Log10 Concentration −0.9): 102% | Percent Growth ([11]; OVCAR-3, Log10 Concentration −1.9): 99% | Growth Percent ([11]; OVCAR-3, one dose): 94.57% | GI50 ([11]; OVCAR-3, in µg/mL): 4.90E1 | TGI ([12]; OVCAR-4): >1.25E2 | Percent Growth ([12]; OVCAR-4, Log10 Concentration 0.1): 102% | Percent Growth ([12]; OVCAR-4, Log10 Concentration 1.1): 107% | Percent Growth ([12]; OVCAR-4, Log10 Concentration 2.1): 62% | Percent Growth ([12]; OVCAR-4, Log10 Concentration −0.9): 102% | Percent Growth ([12]; OVCAR-4, Log10 Concentration −1.9): 103% | Growth Percent ([12]; OVCAR-4, one dose): 98.08% | TGI ([13]; OVCAR-5): >1.25E2 | Percent Growth ([13]; OVCAR-5, Log10 Concentration 0.1): 98% | Percent Growth ([13]; OVCAR-5, Log10 Concentration 1.1): 89% | Percent Growth ([13]; OVCAR-5, Log10 Concentration 2.1): 66% | Percent Growth ([13]; OVCAR-5, Log10 Concentration −0.9): 100% | Percent Growth ([13]; OVCAR-5, Log10 Concentration −1.9): 101% | Growth Percent ([13]; OVCAR-5, one dose): 107.85% | TGI ([14]; RXF 393): 4.72E1 | Percent Growth ([14]; RXF 393, Log10 Concentration 0.1): 101% | Percent Growth ([14]; RXF 393, Log10 Concentration 1.1): 76% | Percent Growth ([14]; RXF 393, Log10 Concentration 2.1): −56% | Percent Growth ([14]; RXF 393, Log10 Concentration −0.9): 101% | Percent Growth ([14]; RXF 393, Log10 Concentration −1.9): 101% | Growth Percent ([14]; RXF 393, one dose): 38.93% | GI50 ([14]; RXF 393, in µg/mL): 1.97E1 | LC50 ([14]; RXF 393, in µg/mL): 1.13E2 | TGI ([15]; MCF7): >1.25E2 | Percent Growth ([15]; MCF7, Log10 Concentration 0.1): 93% | Percent Growth ([15]; MCF7, Log10 Concentration 1.1): 49% | Percent Growth ([15]; MCF7, Log10 Concentration 2.1): 23% | Percent Growth ([15]; MCF7, Log10 Concentration −0.9): 104% | Percent Growth ([15]; MCF7, Log10 Concentration −1.9): 100% | Growth Percent ([15]; MCF7, one dose): 42.68% | GI50 ([15]; MCF7, in µg/mL): 1.15E1 | IC50 ± SD [16]: 11.37 ± 0.55 µg/mL | IC50 ± SD [17]: 13.10 ± 0.17 µg/mL | IC50 ± SD [18]: 15.73 ± 0.42 µg/mL | LC50 [19]: 7.24E1 | TGI ([19]; BT-549): 2.27E1 | Percent Growth ([19]; BT-549, Log10 Concentration 0.1): 100% | Percent Growth ([19]; BT-549, Log10 Concentration 1.1): 26% | Percent Growth ([19]; BT-549, Log10 Concentration 2.1): −74% | Percent Growth ([19]; BT-549, Log10 Concentration −0.9): 98% | Percent Growth ([19]; BT-549, Log10 Concentration −1.9): 104% | Growth Percent ([19]; BT-549, one dose): −74.30% | GI50 ([19]; BT-549, in µg/mL): 5.89E0
